Target: Mouse importin β (mouse) (UniProt P70168)
Assay: SPR

Sequence of Mouse importin β (mouse) (P70168 whole entry): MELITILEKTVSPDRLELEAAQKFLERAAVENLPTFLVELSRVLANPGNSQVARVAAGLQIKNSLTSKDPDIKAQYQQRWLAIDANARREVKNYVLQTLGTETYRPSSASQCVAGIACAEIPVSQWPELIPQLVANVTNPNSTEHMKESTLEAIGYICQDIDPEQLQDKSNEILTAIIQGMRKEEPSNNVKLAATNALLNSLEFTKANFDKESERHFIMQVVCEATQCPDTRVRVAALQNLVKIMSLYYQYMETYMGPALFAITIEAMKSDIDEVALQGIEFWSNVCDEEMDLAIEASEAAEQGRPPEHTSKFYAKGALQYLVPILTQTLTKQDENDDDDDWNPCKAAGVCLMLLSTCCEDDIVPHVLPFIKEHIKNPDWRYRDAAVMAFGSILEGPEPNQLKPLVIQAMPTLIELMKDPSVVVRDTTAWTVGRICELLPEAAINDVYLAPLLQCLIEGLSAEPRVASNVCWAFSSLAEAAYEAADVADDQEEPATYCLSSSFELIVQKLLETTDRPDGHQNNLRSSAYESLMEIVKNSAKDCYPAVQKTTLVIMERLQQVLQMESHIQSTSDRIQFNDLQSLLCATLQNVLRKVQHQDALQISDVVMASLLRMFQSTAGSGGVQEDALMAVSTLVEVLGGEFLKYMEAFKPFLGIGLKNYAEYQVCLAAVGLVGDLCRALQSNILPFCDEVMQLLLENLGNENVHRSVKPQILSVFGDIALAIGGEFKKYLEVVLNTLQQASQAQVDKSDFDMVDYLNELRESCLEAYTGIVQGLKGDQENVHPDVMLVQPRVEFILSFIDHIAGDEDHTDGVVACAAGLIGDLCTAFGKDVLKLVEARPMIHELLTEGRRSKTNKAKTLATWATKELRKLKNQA

koff: 0.00107 s⁻¹ | kon: 44400 M⁻¹ s⁻¹
Substance: human RanGTP (from UniProt P62826 1-216) (natural protein; other documents disagree on this pair)

— article PMC4694755
